The values below are quoted from earlier work in PMC4819957.

For the data set, the target named is Pex3 (Homo sapiens) (UniProt P56589).
Chain of UniProt P56589 (P56589 whole entry): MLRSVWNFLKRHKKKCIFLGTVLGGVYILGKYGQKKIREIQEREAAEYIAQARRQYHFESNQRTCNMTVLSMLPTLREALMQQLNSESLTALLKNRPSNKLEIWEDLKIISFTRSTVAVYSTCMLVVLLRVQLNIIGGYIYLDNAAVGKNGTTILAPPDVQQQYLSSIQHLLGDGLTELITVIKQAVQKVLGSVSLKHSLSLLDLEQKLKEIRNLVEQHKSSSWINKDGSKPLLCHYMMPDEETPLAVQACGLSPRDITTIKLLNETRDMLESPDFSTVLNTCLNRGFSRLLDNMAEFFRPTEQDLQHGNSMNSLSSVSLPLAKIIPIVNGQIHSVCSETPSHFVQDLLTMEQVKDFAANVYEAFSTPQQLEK

For the substance Pex19 (from UniProt P40855), the Kd (as a rule, the equilibrium constant for the complex coming apart) was less than 10 nM.
